Experimental data reported in article PMC13276077.

Key:
[1] = biological target: MeCP2 full-length, e2 isoform;histone octamer (Homo sapiens;, UniProt P51608;P0C0S8;P62807;P68431;P62805 1-486;2-130;2-126;2-136;2-103, |H2B T115C;H3.1 C96S;C110A); assay: EMSA; 20 mM HEPES pH 7.5, 75 mM NaCl, 125 mM KCl, 50 uM EDTA, 2.5 mM beta-mercaptoethanol, 5% glycerol, BSA, 1.58 uM 47 bp competitor DNA (nucleosome assays); absent w
[2] = biological target: MeCP2 full-length, e2 isoform;histone octamer, tailless H3 (Homo sapiens;Homo sapiens, UniProt P51608;P0C0S8;P62807;P68431;P62805 1-486;2-130;2-126;26-136;2-103, |H3.1 del1-24;A25C;C96S;C110A); assay: EMSA; H3-tailless histone octamer; 20 mM HEPES pH 7.5, 75 mM NaCl, 125 mM KCl, 50 uM EDTA, 2.5 mM beta-mercaptoethanol, 5% glycerol, BSA, 1.58 uM 47 bp competitor DNA (nucleosome assays); absent w

Row | Binder | Kd [1] [nM] | Kd [2] [nM]
1 | N603-30 nucleosome 91 meCpA (nucleosome, asymmetric meCpA at 91) DNA 1: GAGCCACAAAATCACCGACGCTCACGGGTGCCCAGTTCGCGCGCCCACCTACCGTGTGAAGTCGTCACTCGGGCTTCTAAGTACGCTTAGCGCACGGTAGAGCGCAATCCAAGGCTAACCACCGTGCATCGATGTTGAAAGAGGCCCTCCGTCCTTATTACTTCAAGTCCCTGGGGT DNA 2: ACCCCAGGGACTTGAAGTAATAAGGACGGAGGGCCTCTTTCAACATCGATGCACGGTGGTTAGCCTTGGATTGCGCTCTACCGTGCGCTAAGCGTACTTAGAAGCCCGAGTGACGACTTCACACGGTAGGTGGGCGCGCGAACTGGGCACCCGTGAGCGTCGGTGATTTTGTGGCTC | 61.4 | 47
2 | N603-30 nucleosome (single 30 bp linker) (nucleosome) DNA 1: GAGCCACAAAATCACCGACGCTCACGGGTGCCCAGTTCGCGCGCCCACCTACCGTGTGAAGTCGTCACTCGGGCTTCTAAGTACGCTTAGCGCACGGTAGAGCGCAATCCAAGGCTAACCACCGTGCATCGATGTTGAAAGAGGCCCTCCGTCCTTATTACTTCAAGTCCCTGGGGT DNA 2: ACCCCAGGGACTTGAAGTAATAAGGACGGAGGGCCTCTTTCAACATCGATGCACGGTGGTTAGCCTTGGATTGCGCTCTACCGTGCGCTAAGCGTACTTAGAAGCCCGAGTGACGACTTCACACGGTAGGTGGGCGCGCGAACTGGGCACCCGTGAGCGTCGGTGATTTTGTGGCTC | 102 | 86.9
